Laboratory results from US20230406885A1, “CYCLIC PEPTIDES FOR TRAPPING INTERLEUKIN-1 BETA” (MERCK SHARP & DOHME LLC, priority 2022, published 2023).
*1 amine or outer side, *2 acyl side, *3 side chain or, on linkers, in order; H or OH if unused. [ ]: non-standard residue; d: D form. TyrEtNAc = L-tyrosine O-ethyl acetamide, (S)-3-(4-(2-acetamidoethoxy)phenyl)-2-aminopropanoic acid, CC(=O)NCCOc1ccc(C[C@H](N[*:1])C(=O)[*:2])cc1; 3AzaPhe4AcPip = (S)-3-(6-(4-acetylpiperazin-1-yl)pyridin-3-yl)-2-aminopropanoic acid, CC(=O)N1CCN(c2ccc(C[C@H](N[*:1])C(=O)[*:2])cn2)CC1; 3Pal4Ph4CO2H = (S)-4-(5-(2-amino-2-carboxyethyl)pyridin-2-yl)benzoic acid, O=C([C@H](Cc1ccc(-c2ccc(C(=O)[*:3])cc2)nc1)N[*:1])[*:2]; hF2CF3 = (S)-2-amino-4-(2-(trifluoromethyl)phenyl)butanoic acid, O=C([C@H](CCc1ccccc1C(F)(F)F)N[*:1])[*:2]; Pro(trans-4-NH2) = O=C([C@@H]1C[C@@H](N[*:3])CN1[*:1])[*:2]; Bip(4'-COOH) = N[C@@H](Cc1ccc(-c2ccc(C(=O)O)cc2)cc1)C(=O)O; 1Nal(3S-Me) = C[C@@H](c1cccc2ccccc12)[C@H](N)C(=O)O; hPhe(4-CF3) = N[C@@H](CCc1ccc(C(F)(F)F)cc1)C(=O)O; Phe(4-COOH) = N[C@@H](Cc1ccc(C(=O)O)cc1)C(=O)O; h3Pal(5-CN) = N#Cc1cncc(CC[C@H](N)C(=O)O)c1; hTyr = N[C@@H](CCc1ccc(O)cc1)C(=O)O; 4Pal = N[C@@H](Cc1ccncc1)C(=O)O; dDab = NCC[C@@H](N)C(=O)O; dNMeA = CN[C@H](C)C(=O)O; Dab = NCC[C@H](N)C(=O)O; Dap = NC[C@H](N)C(=O)O

B1: SEQ ID NO: 10 (peptide)
peptide: cyclo([3Pal4Ph4CO2H]W[Phe(4-COOH)]G[Pro(trans-4-NH2)][1Nal(3S-Me)]D[dNMeA]G[3Pal4Ph4CO2H]W[Dap][dA][hTyr])
SMILES: C[C@@H]1C(=O)NCC(=O)N[C@@H](Cc2ccc(-c3ccc(C(=O)O)cc3)nc2)C(=O)N[C@@H](Cc2c[nH]c3ccccc23)C(=O)N[C@@H](CN)C(=O)N[C@H](C)C(=O)N[C@@H](CCc2ccc(O)cc2)C(=O)N[C@@H](Cc2ccc(-c3ccc(C(=O)O)cc3)nc2)C(=O)N[C@@H](Cc2c[nH]c3ccccc23)C(=O)N[C@@H](Cc2ccc(C(=O)O)cc2)C(=O)NCC(=O)N2C[C@H](N)C[C@H]2C(=O)N[C@@H]([C@@H](C)c2cccc3ccccc23)C(=O)N[C@@H](CC(=O)O)C(=O)N1C
B2: SEQ ID NO: 102 (peptide)
peptide: cyclo([TyrEtNAc]W[Phe(4-COOH)]G[Pro(trans-4-NH2)][1Nal(3S-Me)]D[dNMeA]G[Bip(4'-COOH)][4Pal]G[dDab][h3Pal(5-CN)])
SMILES: CC(=O)NCCOc1ccc(C[C@@H]2NC(=O)[C@H](CCc3cncc(C#N)c3)NC(=O)[C@@H](CCN)NC(=O)CNC(=O)[C@H](Cc3ccncc3)NC(=O)[C@H](Cc3ccc(-c4ccc(C(=O)O)cc4)cc3)NC(=O)CNC(=O)[C@@H](C)N(C)C(=O)[C@H](CC(=O)O)NC(=O)[C@H]([C@@H](C)c3cccc4ccccc34)NC(=O)[C@@H]3C[C@@H](N)CN3C(=O)CNC(=O)[C@H](Cc3ccc(C(=O)O)cc3)NC(=O)[C@H](Cc3c[nH]c4ccccc34)NC2=O)cc1
B3: SEQ ID NO: 101 (peptide)
peptide: cyclo([TyrEtNAc]W[Phe(4-COOH)]G[Pro(trans-4-NH2)][1Nal(3S-Me)]D[dNMeA]G[Bip(4'-COOH)][4Pal][Dab][dA][hTyr])
SMILES: CC(=O)NCCOc1ccc(C[C@@H]2NC(=O)[C@H](CCc3ccc(O)cc3)NC(=O)[C@@H](C)NC(=O)[C@H](CCN)NC(=O)[C@H](Cc3ccncc3)NC(=O)[C@H](Cc3ccc(-c4ccc(C(=O)O)cc4)cc3)NC(=O)CNC(=O)[C@@H](C)N(C)C(=O)[C@H](CC(=O)O)NC(=O)[C@H]([C@@H](C)c3cccc4ccccc34)NC(=O)[C@@H]3C[C@@H](N)CN3C(=O)CNC(=O)[C@H](Cc3ccc(C(=O)O)cc3)NC(=O)[C@H](Cc3c[nH]c4ccccc34)NC2=O)cc1
B4: SEQ ID NO: 100 (peptide)
peptide: cyclo([TyrEtNAc]W[Phe(4-COOH)]G[Pro(trans-4-NH2)][1Nal(3S-Me)]D[dNMeA]G[Bip(4'-COOH)][4Pal][Dab][dA][hPhe(4-CF3)])
SMILES: CC(=O)NCCOc1ccc(C[C@@H]2NC(=O)[C@H](CCc3ccc(C(F)(F)F)cc3)NC(=O)[C@@H](C)NC(=O)[C@H](CCN)NC(=O)[C@H](Cc3ccncc3)NC(=O)[C@H](Cc3ccc(-c4ccc(C(=O)O)cc4)cc3)NC(=O)CNC(=O)[C@@H](C)N(C)C(=O)[C@H](CC(=O)O)NC(=O)[C@H]([C@@H](C)c3cccc4ccccc34)NC(=O)[C@@H]3C[C@@H](N)CN3C(=O)CNC(=O)[C@H](Cc3ccc(C(=O)O)cc3)NC(=O)[C@H](Cc3c[nH]c4ccccc34)NC2=O)cc1
B5: SEQ ID NO: 1 (peptide)
peptide: cyclo([3AzaPhe4AcPip]W[Phe(4-COOH)]G[Pro(trans-4-NH2)][1Nal(3S-Me)]D[dNMeA]G[Bip(4'-COOH)][4Pal][Dap][dA][h3Pal(5-CN)])
SMILES: CC(=O)N1CCN(c2ccc(C[C@@H]3NC(=O)[C@H](CCc4cncc(C#N)c4)NC(=O)[C@@H](C)NC(=O)[C@H](CN)NC(=O)[C@H](Cc4ccncc4)NC(=O)[C@H](Cc4ccc(-c5ccc(C(=O)O)cc5)cc4)NC(=O)CNC(=O)[C@@H](C)N(C)C(=O)[C@H](CC(=O)O)NC(=O)[C@H]([C@@H](C)c4cccc5ccccc45)NC(=O)[C@@H]4C[C@@H](N)CN4C(=O)CNC(=O)[C@H](Cc4ccc(C(=O)O)cc4)NC(=O)[C@H](Cc4c[nH]c5ccccc45)NC3=O)cn2)CC1
B6: SEQ ID NO: 103 (peptide)
peptide: cyclo([TyrEtNAc]W[Phe(4-COOH)]G[Pro(trans-4-NH2)][1Nal(3S-Me)]D[dNMeA]G[Bip(4'-COOH)][4Pal]S[dA][hF2CF3])
SMILES: CC(=O)NCCOc1ccc(C[C@@H]2NC(=O)[C@H](CCc3ccccc3C(F)(F)F)NC(=O)[C@@H](C)NC(=O)[C@H](CO)NC(=O)[C@H](Cc3ccncc3)NC(=O)[C@H](Cc3ccc(-c4ccc(C(=O)O)cc4)cc3)NC(=O)CNC(=O)[C@@H](C)N(C)C(=O)[C@H](CC(=O)O)NC(=O)[C@H]([C@@H](C)c3cccc4ccccc34)NC(=O)[C@@H]3C[C@@H](N)CN3C(=O)CNC(=O)[C@H](Cc3ccc(C(=O)O)cc3)NC(=O)[C@H](Cc3c[nH]c4ccccc34)NC2=O)cc1

target: Recombinant human IL-1β (BioLegend 579404) (human, UniProt P01584 117-269); assay: cell-based or functional assay

MRC5 IC50 [nM]	Binder
0.256	B1
0.0421	B2
0.247	B3
0.274	B4
0.0365	B5
0.066	B6
